Test results as given in publication doi:10.1101/2021.05.06.442907.

Target: actin filaments (UniProt P68135)

- Vmax of actin-activated ATPase activity, 25 °C (Pi s^−1 head^−1): 410
Substance: Chara braunii myosin XI-1 motor domain construct without IQ motifs (domain or fragment)
